Measurements as given in the supplement of paper PMC10567573.

B1: DVL3 (parent)
chain: FPELGYSYGGGSASSQHSEGSRSS
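Note: lentivirally expressed fusions sorted by FACS into six bins by GFP to DsRed ratio, PSI derived from sequencing read proportions per bin multiplied by bin number.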

Variants of: B1
Test: protein stability index of a GFP-peptide fusion (GPS, HEK-293T) (PSI 1-6); higher = more stable
Conditions: c terminus: a fixed tail appended
With S12Q the protein stability index was 3.12. Work on S12K yielded a protein stability index of 2.82. With S12N the protein stability index was 3.17. S12Y showed a protein stability index of 2.41. In the case of S12V, the protein stability index is reported as 3. Variant S12I has a protein stability index of 2.64. Variant S12C has a protein stability index of 3.03. S12P showed a protein stability index of 2.92. For S12R, the protein stability index was 2.91. Variant S12M has a protein stability index of 2.9. S12H showed a protein stability index of 2.9. Variant S12T has a protein stability index of 3.29. Variant S12A has a protein stability index of 2.58. Work on S12W yielded a protein stability index of 2.22. In the case of S12L, the protein stability index is reported as 2.81. In the case of S12F, the protein stability index is reported as 2.65. In the case of S12D, the protein stability index is reported as 3.2. In the case of S12E, the protein stability index is reported as 3.56. Work on S12G yielded a protein stability index of 3.14. Variant G10V has a protein stability index of 2.83. With G10S the protein stability index was 3.45. Variant G10I has a protein stability index of 2.81. With G10W the protein stability index was 1.89. G10R showed a protein stability index of 2.74. In the case of G10K, the protein stability index is reported as 3.61. Work on G10F yielded a protein stability index of 2.22. Variant G10L has a protein stability index of 2.62. For G10Y, the protein stability index was 2.45. G10A showed a protein stability index of 3.06. With G10P the protein stability index was 3.3. For G10N, the protein stability index was 3.55. G10D gave a protein stability index of 3.67. In the case of G10H, the protein stability index is reported as 3.12. Work on G10E yielded a protein stability index of 3.95. Work on G10M yielded a protein stability index of 2.15. With G10T the protein stability index was 2.78. Work on G10Q yielded a protein stability index of 2.84. G10C showed a protein stability index of 2.2. G11V showed a protein stability index of 2.81. With G11K the protein stability index was 2.7. With G11Y the protein stability index was 2.38. G11C gave a protein stability index of 2.7. Variant G11P has a protein stability index of 2.9. With G11N the protein stability index was 2.98. With G11T the protein stability index was 2.52. Work on G11E yielded a protein stability index of 3.22. G11R gave a protein stability index of 3.5. Variant G11M has a protein stability index of 2.73. For G11S, the protein stability index was 3.03. For G11W, the protein stability index was 2.11. For G11I, the protein stability index was 2.22. Work on G11Q yielded a protein stability index of 3.16. With G11A the protein stability index was 3.29. With G11D the protein stability index was 3.35. Variant G11H has a protein stability index of 3.29. For G11F, the protein stability index was 2.28. With G11L the protein stability index was 2.57. With A13T the protein stability index was 3.31. A13D showed a protein stability index of 2.77. With A13R the protein stability index was 3.12. A13G showed a protein stability index of 3.04. Work on A13F yielded a protein stability index of 2.31. Work on A13W yielded a protein stability index of 1.91. A13V gave a protein stability index of 3.12. Variant A13H has a protein stability index of 2.73. Work on A13E yielded a protein stability index of 3.47. In the case of A13P, the protein stability index is reported as 2.94. In the case of A13Q, the protein stability index is reported as 2.8. In the case of A13K, the protein stability index is reported as 2.63. With A13S the protein stability index was 2.9. Work on A13N yielded a protein stability index of 3.03. A13I gave a protein stability index of 2.45. A13C showed a protein stability index of 2.22. Variant A13M has a protein stability index of 2.98. Variant A13Y has a protein stability index of 2.49. For A13L, the protein stability index was 3.18. Y8H gave a protein stability index of 3.43. In the case of Y8P, the protein stability index is reported as 3.97. Work on Y8V yielded a protein stability index of 3.45. Y8I showed a protein stability index of 2.58. Work on Y8G yielded a protein stability index of 3.8. Work on Y8L yielded a protein stability index of 3.09. For Y8F, the protein stability index was 2.59. Work on Y8T yielded a protein stability index of 3.7. In the case of Y8N, the protein stability index is reported as 4.09. For Y8C, the protein stability index was 2.74. Variant Y8A has a protein stability index of 3.72. Variant Y8M has a protein stability index of 3.6. Variant Y8S has a protein stability index of 4.09. For Y8W, the protein stability index was 2.82. In the case of Y8D, the protein stability index is reported as 4.75. Y8K gave a protein stability index of 2.95. Work on Y8R yielded a protein stability index of 3.2. Y8E gave a protein stability index of 4.71. With Y8Q the protein stability index was 4.06. For S15H, the protein stability index was 3.2. S15C gave a protein stability index of 2.19. Work on S15G yielded a protein stability index of 2.8. With S15R the protein stability index was 2.92. Variant S15F has a protein stability index of 2.71. Variant S15A has a protein stability index of 3.59. In the case of S15T, the protein stability index is reported as 2.65. S15I gave a protein stability index of 2.9. Work on S15D yielded a protein stability index of 2.99. For S15E, the protein stability index was 3.65. In the case of S15W, the protein stability index is reported as 1.75. Variant S15K has a protein stability index of 2.64. S15L gave a protein stability index of 3.16. Variant S15N has a protein stability index of 3.38. Variant S15Y has a protein stability index of 2.73. S15Q gave a protein stability index of 3.18. Work on S15P yielded a protein stability index of 3.56. S15V gave a protein stability index of 3.2. In the case of S15M, the protein stability index is reported as 2.74. Q16G gave a protein stability index of 2.88. For Q16I, the protein stability index was 3.05. In the case of Q16D, the protein stability index is reported as 3.58. In the case of Q16M, the protein stability index is reported as 3.07. Work on Q16C yielded a protein stability index of 2.81. Variant Q16F has a protein stability index of 2.03. Q16A gave a protein stability index of 2.86. In the case of Q16R, the protein stability index is reported as 2.41. With Q16P the protein stability index was 3.31. With Q16K the protein stability index was 2.95. Variant Q16S has a protein stability index of 3.09. Variant Q16L has a protein stability index of 2.83. Work on Q16E yielded a protein stability index of 3.22. Q16N showed a protein stability index of 3.28. With Q16H the protein stability index was 3.12. G9P showed a protein stability index of 3.37. Work on G9W yielded a protein stability index of 1.58. G9V showed a protein stability index of 2.4. Variant G9E has a protein stability index of 4.39. In the case of G9R, the protein stability index is reported as 2.91. For G9L, the protein stability index was 1.6. Work on G9N yielded a protein stability index of 3.77. G9Y gave a protein stability index of 2.11. In the case of G9K, the protein stability index is reported as 3.18. For G9Q, the protein stability index was 2.8. Work on G9D yielded a protein stability index of 4.05. G9A showed a protein stability index of 2.39. In the case of G9H, the protein stability index is reported as 2.93. For G9M, the protein stability index was 2.49. Variant G9S has a protein stability index of 3.27. In the case of G9I, the protein stability index is reported as 2.22. G9T showed a protein stability index of 3.32. G9C showed a protein stability index of 2.3. Work on G9F yielded a protein stability index of 2.43. Work on S14H yielded a protein stability index of 3.17. Variant S14M has a protein stability index of 2.59. S14T showed a protein stability index of 2.77. Work on S14E yielded a protein stability index of 3.41. S14V gave a protein stability index of 2.96. Work on S14D yielded a protein stability index of 3.61. Variant S14I has a protein stability index of 2.9. Work on S14Q yielded a protein stability index of 2.99. For S14C, the protein stability index was 2.71. Work on S14L yielded a protein stability index of 2.73. With S14K the protein stability index was 3.51. S14Y gave a protein stability index of 2.37. Variant S14N has a protein stability index of 2.87. S14A showed a protein stability index of 3.45. S14P gave a protein stability index of 3.24. S14R showed a protein stability index of 3.25. Variant S14W has a protein stability index of 2.47. With S14F the protein stability index was 2.16. Work on S14G yielded a protein stability index of 3.44.
